Positions count from the first letter of the chain named. Names may count otherwise.
Experiments:
[1] = molecular target: T1, recombinant human CEACAM5 (human, UniProt P06731 35-685, limits assumed); test: SPR Biacore 8K+, CEACAM5 amine-coupled on CM5, ISVD analyte, 1:1 fit
T1 construct: Immobilised by amine coupling on a CM5 chip
T1 sequence (looked up): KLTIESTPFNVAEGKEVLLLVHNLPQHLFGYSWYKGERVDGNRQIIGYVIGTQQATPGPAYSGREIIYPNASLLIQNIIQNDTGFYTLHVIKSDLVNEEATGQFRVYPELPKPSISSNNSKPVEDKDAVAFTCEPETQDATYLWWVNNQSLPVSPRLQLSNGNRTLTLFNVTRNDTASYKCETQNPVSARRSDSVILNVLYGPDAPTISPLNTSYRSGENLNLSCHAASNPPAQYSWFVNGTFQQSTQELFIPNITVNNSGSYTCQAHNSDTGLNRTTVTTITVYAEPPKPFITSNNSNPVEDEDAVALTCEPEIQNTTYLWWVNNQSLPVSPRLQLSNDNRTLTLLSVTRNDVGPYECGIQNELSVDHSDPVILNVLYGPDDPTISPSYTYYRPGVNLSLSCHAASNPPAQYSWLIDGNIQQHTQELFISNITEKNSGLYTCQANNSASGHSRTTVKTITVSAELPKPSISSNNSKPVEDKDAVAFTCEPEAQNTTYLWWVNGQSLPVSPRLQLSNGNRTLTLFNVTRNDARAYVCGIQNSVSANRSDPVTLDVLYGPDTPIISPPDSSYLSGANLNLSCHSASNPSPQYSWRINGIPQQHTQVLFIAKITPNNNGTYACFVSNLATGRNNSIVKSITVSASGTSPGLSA

human serum albumin = molecular target: T2, human serum albumin (human, UniProt P02768 25-609); test: SPR Biacore 8K+, HSA amine-coupled on C1 chip, ISVD analyte, 1:1 fit
T2 construct: Immobilised by amine coupling on a C1 chip; also called HSA
T2 sequence (P02768 25-609 limits assumed): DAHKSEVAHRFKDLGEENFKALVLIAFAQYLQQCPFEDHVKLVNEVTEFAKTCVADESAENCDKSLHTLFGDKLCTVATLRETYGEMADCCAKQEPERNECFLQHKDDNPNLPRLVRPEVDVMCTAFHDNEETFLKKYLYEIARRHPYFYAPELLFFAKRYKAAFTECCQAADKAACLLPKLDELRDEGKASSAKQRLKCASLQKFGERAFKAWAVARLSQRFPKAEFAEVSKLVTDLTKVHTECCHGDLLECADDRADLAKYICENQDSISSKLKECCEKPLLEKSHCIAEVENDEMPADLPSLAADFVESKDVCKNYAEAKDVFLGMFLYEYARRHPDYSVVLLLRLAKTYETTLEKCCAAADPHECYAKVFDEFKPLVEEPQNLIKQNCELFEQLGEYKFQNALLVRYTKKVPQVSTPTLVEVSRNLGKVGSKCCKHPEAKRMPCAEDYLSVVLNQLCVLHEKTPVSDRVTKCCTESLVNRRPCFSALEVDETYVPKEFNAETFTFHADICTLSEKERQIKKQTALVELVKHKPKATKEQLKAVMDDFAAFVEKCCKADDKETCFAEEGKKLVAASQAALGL

B1: T028501790 (VHH)
VHH: EVQLVESGGGVVQPGGSLRLSCAASGLTFSTYTMGWFRQAPGEEREFVAAIIWSGSNTYYADSVKGRFTISRDNAKNTVYLQMNSLRPEDTALYYCAAQHFGPIGLTTRGYHYWGQGTLVTVSS
notes: K43E vs precursor T028501789; also called A0315007E07(K43E)
**Q.** Which Kd [1] does the source give for B1 here?
**A.** 1.71 nM

**Q.** And the koff [1]?
**A.** 0.00085 s⁻¹

**Q.** What about the kon [1] of the same binder?
**A.** 498000 M⁻¹ s⁻¹

B2: T028501800 (VHH)
VHH: B1 VHH with E43K, K76E
notes: K75E vs precursor T028501789; also called A0315007E07(K75E)
**Q.** Which results are given for B2?
**A.** Kd [1]: 1.72 nM; koff [1]: 0.000911 s⁻¹; kon [1]: 529000 M⁻¹ s⁻¹

B3: T028501801 (VHH)
VHH: B1 VHH with E43K, K76Q
notes: K75Q vs precursor T028501789; also called A0315007E07(K75Q)
**Q.** Which Kd [1] does the source give for B3 here?
**A.** 1.58 nM

**Q.** And the koff [1]?
**A.** 0.000913 s⁻¹

**Q.** What about the kon [1] of the same binder?
**A.** 579000 M⁻¹ s⁻¹

B4: T028501803 (VHH)
VHH: B1 VHH with E43K, K76H
notes: K75H vs precursor T028501789; also called A0315007E07(K75H)
**Q.** Which results are given for B4?
**A.** Kd [1]: 1.46 nM; koff [1]: 0.00084 s⁻¹; kon [1]: 574000 M⁻¹ s⁻¹

B5: T028501793 (VHH)
VHH: B1 VHH with E43H
notes: K43H vs precursor T028501789; also called A0315007E07(K43H)
**Q.** What does the source list for B5?
**A.** Kd [1]: 1.22 nM; koff [1]: 0.000877 s⁻¹; kon [1]: 719000 M⁻¹ s⁻¹

B6: T028501795 (VHH)
VHH: B1 VHH with E43K, K65E
notes: K64E vs precursor T028501789; also called A0315007E07(K64E)
**Q.** Which results are given for B6?
**A.** Kd [1]: 3.55 nM; koff [1]: 0.000914 s⁻¹; kon [1]: 258000 M⁻¹ s⁻¹

B7: T028501796 (VHH)
VHH: B1 VHH with E43K, K65Q
notes: K64Q vs precursor T028501789; also called A0315007E07(K64Q)
**Q.** Which Kd [1] does the source give for B7 here?
**A.** 2.24 nM

**Q.** What about the koff [1] of the same binder?
**A.** 0.000929 s⁻¹

**Q.** And the kon [1]?
**A.** 415000 M⁻¹ s⁻¹

B8: T028501799 (VHH)
VHH: B1 VHH with E43K, K65A
notes: K64A vs precursor T028501789; also called A0315007E07(K64A)
**Q.** Which results are given for B8?
**A.** Kd [1]: 2.54 nM; koff [1]: 0.000976 s⁻¹; kon [1]: 385000 M⁻¹ s⁻¹

B9: T028501804 (VHH)
VHH: B1 VHH with E43K, K76A
notes: K75A vs precursor T028501789; also called A0315007E07(K75A)
**Q.** Which Kd [1] does the source give for B9 here?
**A.** 1.56 nM

**Q.** And the koff [1]?
**A.** 0.000917 s⁻¹

**Q.** And the kon [1]?
**A.** 586000 M⁻¹ s⁻¹

B10: T028501792 (VHH)
VHH: B1 VHH with E43R
notes: K43R vs precursor T028501789; also called A0315007E07(K43R)
**Q.** B10 was tested. Which Kd [1] did it give?
**A.** 1.23 nM

**Q.** And the koff [1]?
**A.** 0.00092 s⁻¹

**Q.** What about the kon [1] of the same binder?
**A.** 747000 M⁻¹ s⁻¹

B11: T028501797 (VHH)
VHH: B1 VHH with E43K, K65R
notes: K64R vs precursor T028501789; also called A0315007E07(K64R)
**Q.** Which results are given for B11?
**A.** Kd [1]: 1.59 nM; koff [1]: 0.00107 s⁻¹; kon [1]: 675000 M⁻¹ s⁻¹

B12: T028501791 (VHH)
VHH: B1 VHH with E43Q
notes: K43Q vs precursor T028501789; also called A0315007E07(K43Q)
**Q.** How did the Kd [1] turn out when B12 was run?
**A.** 1.45 nM

**Q.** What about the koff [1] of the same binder?
**A.** 0.00087 s⁻¹

**Q.** What about the kon [1] of the same binder?
**A.** 602000 M⁻¹ s⁻¹

B13: T028501802 (VHH)
VHH: B1 VHH with E43K, K76R
notes: K75R vs precursor T028501789; also called A0315007E07(K75R)
**Q.** How did the Kd [1] turn out when B13 was run?
**A.** 1.39 nM

**Q.** What about the koff [1] of the same binder?
**A.** 0.000897 s⁻¹

**Q.** And the kon [1]?
**A.** 643000 M⁻¹ s⁻¹

B14: T028501798 (VHH)
VHH: B1 VHH with E43K, K65H
notes: K64H vs precursor T028501789; also called A0315007E07(K64H)
**Q.** What does the source list for B14?
**A.** Kd [1]: 2.39 nM; koff [1]: 0.000962 s⁻¹; kon [1]: 402000 M⁻¹ s⁻¹

B15: T028501794 (VHH)
VHH: B1 VHH with E43A
notes: K43A (Kabat) vs precursor T028501789; also called A0315007E07(K43A)
**Q.** How did the Kd [1] turn out when B15 was run?
**A.** 1.54 nM

**Q.** What about the koff [1] of the same binder?
**A.** 0.000865 s⁻¹

**Q.** What about the kon [1] of the same binder?
**A.** 562000 M⁻¹ s⁻¹

B16: T028501806 (VHH)
VHH: EVQLVESGGGVVQPGGSLRLSCAASGFTFRSFGMSWVRQAPGEGPEWVSSISGSGSDTLYADSVKGRFTISRDNSKNTLYLQMNSLRPEDTALYYCTIGGSLSRSSQGTLVTVSS
notes: K43E vs precursor T028501805; also called HSA006A06(K43E, K83R)
**Q.** How did the Kd (human serum albumin) turn out when B16 was run?
**A.** 1.26 nM

**Q.** What about the koff (human serum albumin) of the same binder?
**A.** 0.00108 s⁻¹

**Q.** And the kon (human serum albumin)?
**A.** 856000 M⁻¹ s⁻¹

B17: T028501810 (VHH)
VHH: B16 VHH with E43K, K65E
notes: K64E vs precursor T028501805; also called HSA006A06(K64E,K83R)
**Q.** Which results are given for B17?
**A.** Kd (human serum albumin): 1.93 nM; koff (human serum albumin): 0.00124 s⁻¹; kon (human serum albumin): 644000 M⁻¹ s⁻¹

B18: T028501808 (VHH)
VHH: B16 VHH with E43H
notes: K43H vs precursor T028501805; also called HSA006A06(K43H, K83R)
**Q.** B18 was tested. Which Kd (human serum albumin) did it give?
**A.** 1.4 nM

**Q.** And the koff (human serum albumin)?
**A.** 0.00102 s⁻¹

**Q.** What about the kon (human serum albumin) of the same binder?
**A.** 728000 M⁻¹ s⁻¹

B19: T028501811 (VHH)
VHH: B16 VHH with E43K, K65Q
notes: K64Q vs precursor T028501805; also called HSA006A06(K64Q, K83R)
**Q.** B19 was tested. Which Kd (human serum albumin) did it give?
**A.** 1.76 nM

**Q.** And the koff (human serum albumin)?
**A.** 0.00103 s⁻¹

**Q.** And the kon (human serum albumin)?
**A.** 587000 M⁻¹ s⁻¹

B20: T028501814 (VHH)
VHH: B16 VHH with E43K, K76Q
notes: K75Q vs precursor T028501805; also called HSA006A06(K75Q, K83R)
**Q.** For B20, which Kd (human serum albumin) is on record?
**A.** 1.4 nM

**Q.** What about the koff (human serum albumin) of the same binder?
**A.** 0.00114 s⁻¹

**Q.** What about the kon (human serum albumin) of the same binder?
**A.** 814000 M⁻¹ s⁻¹
